Results from doi:10.1101/2024.07.10.602929 (2024).
Where no end group is shown, it is not given here. The star is where a group is joined. Biotin = O=C1N[C@H]2[C@H](CS[C@H]2CCCCC(=O)*)N1

B1: PCM1 LIR peptide (pericentriolar material 1 protein residues 1954-1968), N-terminally biotinylated (peptide)
peptide: Biotin-ISQKSDEEDFVKVED
B2: EGFR LIR2 peptide (EGFR residues 1190–1210), N-terminally biotinylated (peptide)
peptide: Biotin-STAENAEYLRVAPQSSEFIGA
B3: EGFR LIR1 peptide (EGFR residues 1076–1099), N-terminally biotinylated (peptide)
peptide: Biotin-ALTEDSIDDTFLPVPEYINQSVPK

Legend:
Test in all cases: BLI
LC3B = LC3B (human, UniProt Q9GZQ8 1-120)
GABARAPL2 = GABARAPL2 (human, UniProt P60520 1-117)
Chain of GABARAPL2 (P60520 whole entry): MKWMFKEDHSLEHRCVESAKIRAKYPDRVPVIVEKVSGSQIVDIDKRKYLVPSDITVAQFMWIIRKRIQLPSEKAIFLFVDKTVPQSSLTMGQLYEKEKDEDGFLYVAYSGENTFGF

LC3A = LC3A (human, UniProt Q9H492 1-121)
[1] = biological target: GABARAP (γ-aminobutyric acid type A receptor-associated protein) (human, UniProt O95166 1-117)
Chain of GABARAP (γ-aminobutyric acid type A receptor-associated protein) (O95166 whole entry): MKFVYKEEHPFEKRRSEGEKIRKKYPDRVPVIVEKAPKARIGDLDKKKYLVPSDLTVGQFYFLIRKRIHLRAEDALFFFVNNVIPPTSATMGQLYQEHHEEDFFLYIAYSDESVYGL

1 = 1 (human, UniProt Q9H0R8 1-117)
Chain of 1 (Q9H0R8 whole entry): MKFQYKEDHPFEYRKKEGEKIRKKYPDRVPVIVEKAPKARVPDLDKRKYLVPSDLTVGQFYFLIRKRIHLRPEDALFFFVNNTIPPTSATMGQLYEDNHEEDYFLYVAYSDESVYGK

Binder	Kd (LC3B)	Kd (GABARAPL2)	Kd (LC3A)	Kd [1]	Kd 1
B1	369 µM	15 µM	118 µM	3.7 µM	–
B2	1460 µM	146 µM	648 µM	304 µM	48 µM
B3	435 µM	105 µM	231 µM	–	21.6 µM
